Consider one molecule from article PMC8679783 (2021).

For the assay, the target named is RDO24_mFab2 (mouse, UniProt P01863 = IgG part). Kind of assay: SPR.

B1: recombinant human MET ECD-Fc (Recombinant Human HGFR/c-MET Fc Chimera His-tag Protein) (Fc fusion)
chain: ECKEALAKSEMNVNMKYQLPNFTAETPIQNVILHEHHIFLGATNYIYVLNEEDLQKVAEYKTGPVLEHPDCFPCQDCSSKANLSGGVWKDNINMALVVDTYYDDQLISCGSVNRGTCQRHVFPHNHTADIQSEVHCIFSPQIEEPSQCPDCVVSALGAKVLSSVKDRFINFFVGNTINSSYFPDHPLHSISVRRLKETKDGFMFLTDQSYIDVLPEFRDSYPIKYVHAFESNNFIYFLTVQRETLDAQTFHTRIIRFCSINSGLHSYMEMPLECILTEKRKKRSTKKEVFNILQAAYVSKPGAQLARQIGASLNDDILFGVFAQSKPDSAEPMDRSAMCAFPIKYVNDFFNKIVNKNNVRCLQHFYGPNHEHCFNRTLLRNSSGCEARRDEYRTEFTTALQRVDLFMGQFSEVLLTSISTFIKGDLTIANLGTSEGRFMQVVVSRSGPSTPHVNFLLDSHPVSPEVIVEHTLNQNGYTLVITGKKITKIPLNGLGCRHFQSCSQCLSAPPFVQCGWCHDKCVRSEECLSGTWTQQICLPAIYKVFPNSAPLEGGTRLTICGWDFGFRRNNKFDLKKTRVLLGNESCTLTLSESTMNTLKCTVGPAMNKHFNMSIIISNGHGTTQYSTFSYVDPVITSISPKYGPMAGGTLLTLTGNYLNSGNSRHISIGGKTCTLKSVSNSILECYTPAQTISTEFAVKLKIDLANRETSIFSYREDPIVYEIHPTKSFISGGSTITGVGKNLNSVSVPRMVINVHEAGRNFTVACQHRSNSEIICCTTPSLQQLNLQLPLKTKAFFMLDGILSKYFDLIYVHNPVFKPFEKPVMISMGNENVLEIKGNDIDPEAVKGEVLKVGNKSCENIHLHSEAVLCTVPNDLLKLNSELNIEWKQAISSTVLGKVIVQPDQNFT
The molecule B1 gave a dissociation rate constant (koff) of 0.000335 s⁻¹.
